Results reported in patent publication US9958461B2, “Detection of protein to protein interactions” (THE GOVERNING COUNCIL OF THE UNIVERSITY OF TORONTO, priority 2013, dated 2018).

B1: CAV2 (protein, UniProt P51636 1-162, looked up)
Caveolin-2: MGLETEKADVQLFMDDDSYSHHSGLEYADPEKFADSDQDRDPHRLNSHLKLGFEDVIAEPVTTHSFDKVWICSHALFEISKYVMYKFLTVFLAIPLAFIAGILFATLSCLHIWILMPFVKTCLMVLPSVQTIWKSVTDVIIAPLCTSVGRCFSSVSLQLSQD
B2: SLA (protein, UniProt Q13239 2-276, looked up)
Src-like-adapter: GNSMKSTPAPAERPLPNPEGLDSDFLAVLSDYPSPDISPPIFRRGEKLRVISDEGGWWKAISLSTGRESYIPGICVARVYHGWLFEGLGRDKAEELLQLPDTKVGSFMIRESETKKGFYSLSVRHRQVKHYRIFRLPNNWYYISPRLTFQCLEDLVNHYSEVADGLCCVLTTPCLTQSTAAPAVRASSSPVTLRQKTVDWRRVSRLQEDPEGTENPLGVDESLFSYGLRESIASYLSLTSEDNTSFDRKKKSISLMYGGSKRKSSFFSSPPYFED
B3: PTPN22 (protein, UniProt Q9Y2R2 1-807, looked up)
Tyrosine-protein phosphatase …: MDQREILQKFLDEAQSKKITKEEFANEFLKLKRQSTKYKADKTYPTTVAEKPKNIKKNRYKDILPYDYSRVELSLITSDEDSSYINANFIKGVYGPKAYIATQGPLSTTLLDFWRMIWEYSVLIIVMACMEYEMGKKKCERYWAEPGEMQLEFGPFSVSCEAEKRKSDYIIRTLKVKFNSETRTIYQFHYKNWPDHDVPSSIDPILELIWDVRCYQEDDSVPICIHCSAGCGRTGVICAIDYTWMLLKDGIIPENFSVFSLIREMRTQRPSLVQTQEQYELVYNAVLELFKRQMDVIRDKHSGTESQAKHCIPEKNHTLQADSYSPNLPKSTTKAAKMMNQQRTKMEIKESSSFDFRTSEISAKEELVLHPAKSSTSFDFLELNYSFDKNADTTMKWQTKAFPIVGEPLQKHQSLDLGSLLFEGCSNSKPVNAAGRYFNSKVPITRTKSTPFELIQQRETKEVDSKENFSYLESQPHDSCFVEMQAQKVMHVSSAELNYSLPYDSKHQIRNASNVKHHDSSALGVYSYIPLVENPYFSSWPPSGTSSKMSLDLPEKQDGTVFPSSLLPTSSTSLFSYYNSHDSLSLNSPTNISSLLNQESAVLATAPRIDDEIPPPLPVRTPESFIVVEEAGEFSPNVPKSLSSAVKVKIGTSLEWGGTSEPKKFDDSVILRPSKSVKLRSPKSELHQDRSSPPPPLPERTLESFFLADEDCMQAQSIETYSTSYPDTMENSTSSKQTLKTPGKSFTRSKSLKILRNMKKSICNSCPPNKPAESVQSNNSSSFLNFGFANRFSKPKGPRNPPPTWNI
B4: GAB1 (protein, UniProt Q13480 2-694, looked up)
GRB2-associated-binding …: SGGEVVCSGWLRKSPPEKKLKRYAWKRRWFVLRSGRLTGDPDVLEYYKNDHAKKPIRIIDLNLCQQVDAGLTFNKKEFENSYIFDINTIDRIFYLVADSEEEMNKWVRCICDICGFNPTEEDPVKPPGSSLQAPADLPLAINTAPPSTQADSSSATLPPPYQLINVPPHLETLGIQEDPQDYLLLINCQSKKPEPTRTHADSAKSTSSETDCNDNVPSHKNPASSQSKHGMNGFFQQQMIYDSPPSRAPSASVDSSLYNLPRSYSHDVLPKVSPSSTEADGELYVFNTPSGTSSVETQMRHVSISYDIPPTPGNTYQIPRTFPEGTLGQTSKLDTIPDIPPPRPPKPHPAHDRSPVETCSIPRTASDTDSSYCIPTAGMSPSRSNTISTVDLNKLRKDASSQDCYDIPRAFPSDRSSSLEGFHNHFKVKNVLTVGSVSSEELDENYVPMNPNSPPRQHSSSFTEPIQEANYVPMTPGTFDFSSFGMQVPPPAHMGFRSSPKTPPRRPVPVADCEPPPVDRNLKPDRKVKPAPLEIKPLPEWEELQAPVRSPITRSFARDSSRFPMSPRPDSVHSTTSSSDSHDSEENYVPMNPNLSSEDPNLFGSNSLDGGSSPMIKPKGDKQVEYLDLDLDSGKSTPPRKQKSSGSGSSVADERVDYVVVDQQKTLALKSTREAWTDGRQSTESETPAKSVK
B5: PRKCZ (protein, UniProt Q05513 1-592, looked up)
Protein kinase C zeta type: MPSRTGPKMEGSGGRVRLKAHYGGDIFITSVDAATTFEELCEEVRDMCRLHQQHPLTLKWVDSEGDPCTVSSQMELEEAFRLARQCRDEGLIIHVFPSTPEQPGLPCPGEDKSIYRRGARRWRKLYRANGHLFQAKRFNRRAYCGQCSERIWGLARQGYRCINCKLLVHKRCHGLVPLTCRKHMDSVMPSQEPPVDDKNEDADLPSEETDGIAYISSSRKHDSIKDDSEDLKPVIDGMDGIKISQGLGLQDFDLIRVIGRGSYAKVLLVRLKKNDQIYAMKVVKKELVHDDEDIDWVQTEKHVFEQASSNPFLVGLHSCFQTTSRLFLVIEYVNGGDLMFHMQRQRKLPEEHARFYAAEICIALNFLHERGIIYRDLKLDNVLLDADGHIKLTDYGMCKEGLGPGDTTSTFCGTPNYIAPEILRGEEYGFSVDWWALGVLMFEMMAGRSPFDIITDNPDMNTEDYLFQVILEKPIRIPRFLSVKASHVLKGFLNKDPKERLGCRPQTGFSDIKSHAFFRSIDWDLLEKKQALPPFQPQITDDYGLDNFDTQFTSEPVQLTPDDEDAIKRIDQSEFEGFEYINPLLLSTEESV
B6: LCP2 (protein, UniProt Q13094 1-533, looked up)
Lymphocyte cytosolic protein 2: MALRNVPFRSEVLGWDPDSLADYFKKLNYKDCEKAVKKYHIDGARFLNLTENDIQKFPKLRVPILSKLSQEINKNEERRSIFTRKPQVPRFPEETESHEEDNGGWSSFEEDDYESPNDDQDGEDDGDYESPNEEEEAPVEDDADYEPPPSNDEEALQNSILPAKPFPNSNSMYIDRPPSGKTPQQPPVPPQRPMAALPPPPAGRNHSPLPPPQTNHEEPSRSRNHKTAKLPAPSIDRSTKPPLDRSLAPFDREPFTLGKKPPFSDKPSIPAGRSLGEHLPKIQKPPLPPTTERHERSSPLPGKKPPVPKHGWGPDRRENDEDDVHQRPLPQPALLPMSSNTFPSRSTKPSPMNPLPSSHMPGAFSESNSSFPQSASLPPYFSQGPSNRPPIRAEGRNFPLPLPNKPRPPSPAEEENSLNEEWYVSYITRPEAEAALRKINQDGTFLVRDSSKKTTTNPYVLMVLYKDKVYNIQIRYQKESQVYLLGTGLRGKEDFLSVSDIIDYFRKMPLLLIDGKNRGSRYQCTLTHAAGYP
B7: JUP (protein, UniProt P14923 1-745, looked up)
Junction plakoglobin: MEVMNLMEQPIKVTEWQQTYTYDSGIHSGANTCVPSVSSKGIMEEDEACGRQYTLKKTTTYTQGVPPSQGDLEYQMSTTARAKRVREAMCPGVSGEDSSLLLATQVEGQATNLQRLAEPSQLLKSAIVHLINYQDDAELATRALPELTKLLNDEDPVVVTKAAMIVNQLSKKEASRRALMGSPQLVAAVVRTMQNTSDLDTARCTTSILHNLSHHREGLLAIFKSGGIPALVRMLSSPVESVLFYAITTLHNLLLYQEGAKMAVRLADGLQKMVPLLNKNNPKFLAITTDCLQLLAYGNQESKLIILANGGPQALVQIMRNYSYEKLLWTTSRVLKVLSVCPSNKPAIVEAGGMQALGKHLTSNSPRLVQNCLWTLRNLSDVATKQEGLESVLKILVNQLSVDDVNVLTCATGTLSNLTCNNSKNKTLVTQNSGVEALIHAILRAGDKDDITEPAVCALRHLTSRHPEAEMAQNSVRLNYGIPAIVKLLNQPNQWPLVKATIGLIRNLALCPANHAPLQEAAVIPRLVQLLVKAHQDAQRHVAAGTQQPYTDGVRMEEIVEGCTGALHILARDPMNRMEIFRLNTIPLFVQLLYSSVENIQRVAAGVLCELAQDKEAADAIDAEGASAPLMELLHSRNEGTATYAAAVLFRISEDKNPDYRKRVSVELTNSLFKHDPAAWEAAQSMIPINEPYGDDMDATYRPMYSSDVPLDPLEMHMDMDGDYPIDTYSDGLRPPYPTADHMLA
B8: DOK1 (protein, UniProt Q99704 1-481, looked up)
Docking protein 1: MDGAVMEGPLFLQSQRFGTKRWRKTWAVLYPASPHGVARLEFFDHKGSSSGGGRGSSRRLDCKVIRLAECVSVAPVTVETPPEPGATAFRLDTAQRSHLLAADAPSSAAWVQTLCRNAFPKGSWTLAPTDNPPKLSALEMLENSLYSPTWEGSQFWVTVQRTEAAERCGLHGSYVLRVEAERLTLLTVGAQSQILEPLLSWPYTLLRRYGRDKVMFSFEAGRRCPSGPGTFTFQTAQGNDIFQAVETAIHRQKAQGKAGQGHDVLRADSHEGEVAEGKLPSPPGPQELLDSPPALYAEPLDSLRIAPCPSQDSLYSDPLDSTSAQAGEGVQRKKPLYWDLYEHAQQQLLKAKLTDPKEDPIYDEPEGLAPVPPQGLYDLPREPKDAWWCQARVKEEGYELPYNPATDDYAVPPPRSTKPLLAPKPQGPAFPEPGTATGSGIKSHNSALYSQVQKSGASGSWDCGLSRVGTDKTGVKSEGST

Molecular target: T1, EGFR-Wt (Homo sapiens, UniProt P00533)
T1 construct: with the advantage of testing full-length integral membrane proteins; (GGGGS)2 linker-Cub (human ubiquitin aa 35-76)-GAL4(1-147)-mNFkB(364-550) (C); expressed in transfected cells
Assay: MaMTH EGFR-interactor screen, lentiviral preys against EGFR-wildtype bait (interaction score)
Assay type: cell-based
Conditions: MaMTH interaction score of prey with EGFR-Wt bait, mean
Procedure, shortened: (§1)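 Interaction score is the luciferase fold-change versus averaged negative controls (Fabp5, Pex19, Pex7, GABBR2), with >1 called interacting. Luciferase was measured 24 h after triplicate bait transfection. This followed single-copy prey transduction (MOI ~0.3-0.4) of GAL4UAS-luciferase HEK293T cells and ≥48 h puromycin selection.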

Molecule | EGFR-Wt mean
B1 | 2.57
B2 | 2.78
B3 | 2.99
B4 | 0.93
B5 | 2.49
B6 | 2.71
B7 | 0.98
B8 | 5.17

Test system: EGFR-Wt
Assay: as above
Assay type: cell-based, human
Conditions: ratio of EGFR-Wt mean to EGFR-L858R mean interaction score
Procedure, shortened: as §1

Molecule | Wt/L858R
B1 | 0.39
B2 | 2.40
B3 | 8.23
B4 | 0.41
B5 | 2.79
B6 | 0.43
B7 | 0.39
B8 | 0.39

Molecular target: T2, EGFR-L858R (Homo sapiens, UniProt P00533, L858R)
T2 construct: with the advantage of testing full-length integral membrane proteins; (GGGGS)2 linker-Cub (human ubiquitin aa 35-76)-GAL4(1-147)-mNFkB(364-550) (C); expressed in transfected cells
Assay: MaMTH EGFR-interactor screen, lentiviral preys against EGFR-L858R bait (interaction score)
Assay type: cell-based
Conditions: MaMTH interaction score of prey with EGFR-L858R bait
Procedure, shortened: as §1

Molecule | EGFR-L858R mean
B1 | 6.58
B2 | 1.16
B3 | 0.36
B4 | 2.30
B5 | 0.89
B6 | 6.29
B7 | 2.51
B8 | 13.10
